# Test results as given in US9486502B2, “Methods of administering interferon gamma to absorb fluid from the subretinal space” (The United States of America, as represented by the …, priority 2008, dated 2016).
# B1: IFNγ: pleiotropic cytokine produced by T- and NK-cells; obtained from Peprotech (protein, UniProt P01579 24-161, looked up)
# Interferon gamma: QDPYVKEAENLKKYFNAGHSDVADNGTLFLGILKNWKEESDRKIMQSQIVSFYFKLFKNFKDDQSIQKSVETIKEDMNVKFFNSNKKKRDDFEKLTNYSVTDLNVQRKAIHELIQVMAELSPAAKTGKRKRSQMLFRG
# Legend:
# Type in all cases: cell-based, human
# hfRPE cells [1] = assay: wound healing assay, hfRPE migration; conditions: 48 hours, proliferation suppressed with mitomycin C
# Experimental: The wound healing assay was used to study the effects of inflammatory cytokines on hfRPE cell migration, as described previously in Li, R., et al. Invest Ophthalmol Vis Sci, 2007, 48, 5722-5732, incorporated herein by reference in its entirety. Cell proliferation was suppressed by incubation with 10 μg/ml mitomycin C (Sigma) for 2 hours before all migration experiments. A circular denuded area (7 mm in diameter) was made in each well using a custom designed cell scraper. After incubation with various inflammatory cytokines for 48 hours, cells were fixed with cold methanol and stained with ethidium homodimer-1 (EthD-1, Invitrogen) according to the manufacturer's instructions. Cell migration was quantified by counting the average number of cells that migrated into the denuded area in 16 microscope fields surrounding the circumference of the denuded area. Each condition was tested in triplicate and repeated using cells from different donors.
# hfRPE cells [2] = assay: BrdU incorporation assay, hfRPE proliferation
# Experimental: BrdU incorporation was performed as described in Li, R. et al., 2007, Invest Ophthalmol Vis Sci, 48, 5722-5732, incorporated by reference in its entirety herein. IFNγ, TNFα, and IL-1β were obtained from Peprotech, Rocky Hill, N.J., and Universal Type I Interferon (cat: 11200-1) or human interferon beta la were from PBL biomedical laboratories (New Brunswick, N.J.). Cumulative effects were measured by adding VEGF165, EGF and bFGF (Peprotech), and PDGF-BB (R & D Systems) with IFNγ. Anti-human IFNγ R1 blocking antibody (R & D Systems, Minneapolis, Minn.), JAK inhibitor I, AG490, or JAK3 inhibitor II (EMD Biosciences, Gibbstown, N.J.) was added to the cells one hour prior to the addition of IFNγ. SFM was used as the negative control and SFM supplemented with 5% serum was used as positive control. After treatment for 48 hours, RPE cells were incubated with BrdU for 24 hours. The proliferation rate was evaluated using a Cell proliferation ELISA BrdU Kit (Roche, Ind.). Quadruplicate wells were used for each condition and the experiments were repeated at least two times using cell cultures from different donors. Cell viability was evaluated using a Live/Dead Viability/Cytotoxicity Kit (Invitrogen).
# hfRPE monolayer = assay: fluorescence imaging of intracellular calcium; conditions: IFNγ 0.5, 5, 50 ng/ml both sides; n=4
# Experimental: Therefore, whether the CFTR pathway was involved in the response to IFNγ was examined using cAMP assays as described in Example 8. Primary cultures of hfRPE cells were incubated in control media, in the presence of IFNγ (0.5, 5, or 50 ng/ml), or in forskolin containing media (10 μM) for different amounts of time (5 minutes, 45 minutes, 12 hours, or 24 hours), and then total intracellular cAMP levels were measured using a cAMP ELISA System (Applied Biosystems, Foster City, Calif.). […] (n=3; P<0.05). […] In a separate set of experiments, fluorescence imaging was used to measure the intracellular concentration of calcium [Ca^2+]I in the presence of IFNγ (0.5, 5, 50 ng/ml) added to both sides of the hfRPE monolayer and no change in total cell [Ca^2+]I was observed (n=4, data not shown).
molecule,measurement,setting,value
B1,effect on hfRPE cell migration,hfRPE cells [1],significantly inhibited
same,effect on hfRPE proliferation (BrdU incorporation),hfRPE cells [2]; 0.5-80 ng/ml,strong inhibitory effect
same,"effect on hfRPE proliferation induced by bFGF, PDGF-BB, VEGF",hfRPE cells [2]; IFNγ 5 ng/ml,significantly inhibited
same,effect on hfRPE cell proliferation,"hfRPE cells [2]; IFNγ alone 5 ng/ml, 5% FBS or 0% FBS",significantly inhibited
same,concentration as low as which hfRPE proliferation was inhibited,"hfRPE cells [2]; other experiments, data not shown",0.02 ng/mL
same,total cell [Ca^2+]I,hfRPE monolayer,no change
